Source: patent US20220143136A1, “USE OF ANNEXINS IN PREVENTING AND TREATING MUSCLE MEMBRANE INJURY” (NORTHWESTERN UNIVERSITY, priority 2018, published 2022)
Residue numbers refer to the chain shown, from its start. In names and notes the source's numbering stands.

B1: annexin A1: annexin A1 with carboxyl-terminal turboGFP or tdTomato tag, expressed from plasmid in myofibers (protein, UniProt P10107 2-346, looked up)
Annexin A1: AMVSEFLKQARFLENQEQEYVQAVKSYKGGPGSAVSPYPSFNVSSDVAALHKAIMVKGVDEATIIDILTKRTNAQRQQIKAAYLQENGKPLDEVLRKALTGHLEEVVLAMLKTPAQFDADELRGAMKGLGTDEDTLIEILTTRSNEQIREINRVYREELKRDLAKDITSDTSGDFRKALLALAKGDRCQDLSVNQDLADTDARALYEAGERRKGTDVNVFTTILTSRSFPHLRRVFQNYGKYSQHDMNKALDLELKGDIEKCLTTIVKCATSTPAFFAEKLYEAMKGAGTRHKALIRIMVSRSEIDMNEIKVFYQKKYGISLCQAILDETKGDYEKILVALCGGN
modifications: C-terminal turboGFP or tdTomato tag
notes: annexin A1 with carboxyl-terminal turboGFP or tdTomato tag, expressed from plasmid in myofibers
B2: annexin A1 D171A: Ca2+-binding mutant of annexin A1 (D171A), plasmid expressed (protein, UniProt P10107 2-346, looked up, variant D171A)
Annexin A1: B1 Annexin A1 with D170A
modifications: GFP tag
B3: A6D149A: annexin A6 D149A mutant, plasmid expressed (protein, UniProt P14824 2-673, looked up, variant D149A)
Annexin A6: AKIAQGAMYRGSVHDFPEFDANQDAEALYTAMKGFGSDKESILELITSRSNKQRQEICQNYKSLYGKDLIEDLKYELTGKFERLIVNLMRPLAYCDAKEIKDAISGVGTDEKCLIEILASRTNEQMHQLVAAYKDAYERDLESDIIGATSGHFQKMLVVLLQGTRENDDVVSEDLVQQDVQDLYEAGELKWGTDEAQFIYILGNRSKQHLRLVFDEYLKTTGKPIEASIRGELSGDFEKLMLAVVKCIRSTPEYFAERLFKAMKGLGTRDNTLIRIMVSRSELDMLDIREIFRTKYEKSLYSMIKNDTSGEYKKALLKLCGGDDDAAGQFFPEAAQVAYQMWELSAVSRVELKGTVCAANDFNPDADAKALRKAMKGIGTDEATIIDIVTHRSNAQRQQIRQTFKSHFGRDLMADLKSEISGDLARLILGLMMPPAHYDAKQLKKAMEGAGTDEKTLIEILATRTNAEIRAINEAYKEDYHKSLEDALSSDTSGHFRRILISLATGNREEGGENRDQAQEDAQVAAEILEIADTPSGDKTSLETRFMTVLCTRSYPHLRRVFQEFIKKTNYDIEHVIKKEMSGDVKDAFVAIVQSVKNKPLFFADKLYKSMKGAGTDEKTLTRVMVSRSEIDLLNIRREFIEKYDKSLHQAIEGDTSGDFMKALLALCGGED
modifications: GFP tag
notes: annexin A6 D149A mutant, plasmid expressed
B4: annexin A2: annexin A2 with carboxyl-terminal turboGFP or tdTomato tag, expressed from plasmid in myofibers (protein, UniProt P07356 2-339, looked up)
Annexin A2: STVHEILCKLSLEGDHSTPPSAYGSVKPYTNFDAERDALNIETAVKTKGVDEVTIVNILTNRSNVQRQDIAFAYQRRTKKELPSALKSALSGHLETVILGLLKTPAQYDASELKASMKGLGTDEDSLIEIICSRTNQELQEINRVYKEMYKTDLEKDIISDTSGDFRKLMVALAKGRRAEDGSVIDYELIDQDARELYDAGVKRKGTDVPKWISIMTERSVCHLQKVFERYKSYSPYDMLESIKKEVKGDLENAFLNLVQCIQNKPLYFADRLYDSMKGKGTRDKVLIRIMVSRSEVDMLKIRSEFKRKYGKSLYYYIQQDTKGDYQKALLYLCGGDD
modifications: C-terminal turboGFP or tdTomato tag
notes: annexin A2 with carboxyl-terminal turboGFP or tdTomato tag, expressed from plasmid in myofibers
B5: A2D161A: Ca2+-binding mutant of annexin A2 (D161A), plasmid expressed (protein, UniProt P07356 2-339, looked up, variant D161A)
Annexin A2: B4 Annexin A2 with D161A
modifications: GFP tag

Key:
myofibers [1] = test: Bleb formation and intracellular Ca2+ fluorescence (GCaMP5G, Fluo-4) after laser injury with annexin overexpression; format: cell-based, mouse; settings: for internal GCaMP5G Ca2+ fluorescence at the site of injury: vs GCaMP5G alone
Description: (§1) Electroporation, myofiber isolation, laser injury, cap and vesicle measurement. Flexor digitorum brevis (FDB) fibers were transfected with endo-free plasmid DNA by in vivo electroporation. Methods were described previously in (Demonbreun and McNally, 2015; Demonbreun et al., 2016b; DiFranco et al., 2009). Z-stack projections were acquired from consecutive acquisitions after the final time-lapse frame, approximately 4 minutes post damage, with a […] step size between slices. Z-stack renderings were constructed in FIJI. Measurement of the cap area and feret diameter were conducted from a single slice near the middle of the z-stack using FIJI imaging tools. Fibers expressing similar levels of tagged or GCaMP5G protein were compared. GCaMP5G Ca^2+ fluorescence was measured from the acquired timelapse images, using a standard rectangular ROI, placed inside the myofiber below the site of damage using FIJI. Fluorescence was expressed as F/F0. External vesicle number and GCaMP5G area were measured from endpoint z-stacks and max projection images using FIJI. Vesicles were considered external if they were found outside the sarcolemma assessed in brightfield and fluorescent channels. All measurements were acquired from myofibers isolated from at least n≥3 mice, n≥3 myofibers per mouse.
as §1, with “(Demonbreun A R, Quattrocelli M, Barefield D Y, Allen M V, Swanson K E,” for “(Demonbreun”, “McNally E M. An actin-dependent annexin complex mediates plasma membrane repair in muscle. The Journal of cell biology. 2016; 213(6):705-18; Demonbreun A R, and McNally E M. DNA Electroporation, Isolation and Imaging of Myofibers. Journal of visualized experiments: JoVE.” for “McNally,”, “106(106):e53551;” for “Demonbreun et al., 2016b;”, “M, Quinonez M, Capote J, and Vergara J. DNA transfection of mammalian skeletal muscles using in vivo electroporation. Journal of visualized experiments: JoVE. 2009; 32(32)).” for “et al., 2009).”
Calcium and pH indicator dye measurements. Wildtype FDBs were isolated and plated in Ringers on Matek glass-bottom dishes as described above. Twenty minutes prior to imaging, myofibers were loaded with Fluo-4 AM at 37° C. (F10489, ThermoFisher Scientific, Waltham, Mass.) or pHrodo AM (P35373, ThermoFisher Scientific, Waltham, Mass.) as described in the instruction manual. Fibers were rinsed once with Ringers then subsequently damaged and imaged on the Nikon A1R GaSP, as described above. Fluorescence intensity was measured using FIJI (NIH). phRodo change in fluorescence intensity was calculated as F/F0. Data was acquired from n=3 mice per experiment from multiple myofibers per mouse. […]

myofibers [2] = test: Annexin repair cap formation after laser injury at multiple Ca2+ concentrations; format: cell-based, mouse; settings: for Km1/2 (repair cap area as a function of Ca2+ concentration): Ca2+ 0-2 mM, modified Hill equation; for wildtype annexin A6 cap size with co-expressed mutant annexin A1 or A2: heterotypic co-expression; for repair cap diameter (DMAX) / cap size of the co-expressed wildtype annexin of the same type: wildtype+mutant vs wildtype+wildtype co-electroporation (homotypic)
Description: as §1
Calcium kinetics. FDB muscle was electroporated and isolated as described above. Myofibers were damaged in Ringers solution with Ca^2+ concentrations of 2 mM, 1 mM, 0.5 mM, 0.25 mM, 0.175 mM, 0.1 mM, 0.050 mM, and 0 mM. EDTA was added as a Ca^2+ chelating agent in only in the 0 mM Ca^2+ Ringers. Myofibers were isolated directly into 2 mM, 1 mM and 0.5 mM Ringers for those experiments respectively. For experiments using less than 0.5 mM Ca^2+ myofibers were isolated in 0.5 mM Ca^2+ Ringers and then diluted with 0 mM EDTA-free Ca^2+ Ringers. For 0 mM experiments, myofibers were isolated in 0.5 mM Ca^2+ Ringers and then replaced with 0 mM Ca^2++EDTA Ringers just prior to imaging. Co-electroporation of wildtype annexin+wildtype annexin constructs was performed in one mouse foot, while the contralateral foot was co-electroporated with wildtype annexin+mutant annexin. All measurements were acquired from myofibers isolated from at least n≥2 mice, n≥3 myofibers per mouse at each Ca^2+ concentration. Area-Ca^2+ curves were fitted with a Hill Curve at Ca^2+ concentrations ranging from 0-2 mM. Kinetic parameters were calculated using Prism Graphpad.
as §1, with “(Demonbreun A R, Quattrocelli M, Barefield D Y, Allen M V, Swanson K E,” for “(Demonbreun”, “McNally E M. An actin-dependent annexin complex mediates plasma membrane repair in muscle. The Journal of cell biology. 2016; 213(6):705-18; Demonbreun A R, and McNally E M. DNA Electroporation, Isolation and Imaging of Myofibers. Journal of visualized experiments: JoVE.” for “McNally,”, “106(106):e53551;” for “Demonbreun et al., 2016b;”, “M, Quinonez M, Capote J, and Vergara J. DNA transfection of mammalian skeletal muscles using in vivo electroporation. Journal of visualized experiments: JoVE. 2009; 32(32)).” for “et al., 2009).”, “Vesicles were considered external if they were found outside the sarcolemma assessed in brightfield and fluorescent channels. All measurements were acquired from myofibers isolated from at least n≥3 mice, n≥3 myofibers per mouse.” left out

[3] = fluorescently tagged annexin expressed in myofibers

| Molecule | internal GCaMP5G Ca2+ fluorescence at the site of injury (myofibers [1]; over 240 seconds of imaging) | Km1/2 (repair cap area as a function of Ca2+ concentration) (myofibers [2]; [3]) [mM] | wildtype annexin A6 cap size with co-expressed mutant annexin A1 or A2 (myofibers [2]) | repair cap diameter (DMAX) / cap size of the co-expressed wildtype annexin of the same type (myofibers [2]) | further results |
| --- | --- | --- | --- | --- | --- |
| B1 | significant reduction | 0.17 |  |  |  |
| B2 |  |  | minimal effect | significantly reduced |  |
| B3 |  |  |  | little effect |  |
| B4 | significant reduction | 0.067 |  |  | number of extracellular (GCaMP5G-positive) blebs at the membrane lesion (myofibers [1]; annexin overexpression vs annexin A1 overexpression or GCaMP5G alone): significantly more blebs; internal GCaMP5G Ca2+ fluorescence at the site of injury (myofibers [1]; first 20 seconds post injury): significant reduction; lowest Ca2+ concentration at which a discernable repair cap formed (myofibers [2]; [3]): 0.05 mM |
| B5 |  |  | minimal effect | significantly reduced |  |
